Common to all, as to experiment: two-hybrid library CCNG1;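 further: natural log of median RNA to DNA barcode read ratio; higher means stronger binding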
One experiment has as its target T1, 4H4001-bN.
T1 chain: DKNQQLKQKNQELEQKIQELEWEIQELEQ

Another experiment concerns the target T2, 4H470-bN.
T2 chain: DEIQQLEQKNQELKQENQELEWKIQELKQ

The next experiment concerns the target T3, 4H3961-bN.
T3 chain: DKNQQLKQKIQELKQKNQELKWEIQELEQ
As to conditions: mean of both orientations.

Another experiment addresses T4, 4H3628-bA.
T4 chain: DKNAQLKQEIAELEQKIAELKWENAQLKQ

The target of the next experiment is T5, 4H3175-bA.
T5 chain: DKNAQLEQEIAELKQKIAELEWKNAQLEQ

The next experiment concerns the target T6, 4H591-bA.
T6 chain: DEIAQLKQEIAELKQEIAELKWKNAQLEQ

A further experiment deals with T7, 4H3462-bA.
T7 chain: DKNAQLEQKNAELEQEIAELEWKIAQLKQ

A further experiment addresses T8, 4H3497-bA.
T8 chain: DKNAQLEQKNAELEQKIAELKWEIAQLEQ

The next experiment deals with T9, 4H3926-bA.
T9 chain: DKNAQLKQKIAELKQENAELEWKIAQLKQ

A further experiment addresses T10, 4H626-bA.
T10 chain: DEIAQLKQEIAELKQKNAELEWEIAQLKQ

The next experiment concerns the target T11, 4H3613-bA.
T11 chain: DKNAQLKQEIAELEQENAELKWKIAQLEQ

In a further experiment the target is T12, 4H906-bA.
T12 chain: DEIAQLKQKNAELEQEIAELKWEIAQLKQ

The target in another experiment is T13, 4H3298-bA.
T13 chain: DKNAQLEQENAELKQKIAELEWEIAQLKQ

In a further experiment the target is T14, 4H3277-bA.
T14 chain: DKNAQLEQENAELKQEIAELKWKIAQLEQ

Another experiment concerns the target T15, 4H918-bN.
T15 chain: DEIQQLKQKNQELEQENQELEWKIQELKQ

The next experiment concerns the target T16, 4H462-bN.
T16 chain: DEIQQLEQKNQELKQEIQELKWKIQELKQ

Another experiment deals with T17, 4H72-bN.
T17 chain: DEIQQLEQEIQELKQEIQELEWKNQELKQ

A further experiment deals with T18, 4H3189-bN.
T18 chain: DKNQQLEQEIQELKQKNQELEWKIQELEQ

The target of a further experiment is T19, 4H883-bN.
T19 chain: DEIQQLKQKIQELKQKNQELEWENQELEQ

The next experiment addresses T20, 4H3843-bN.
T20 chain: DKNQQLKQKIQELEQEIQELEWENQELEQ

The target of the next experiment is T21, 4H3606-bN.
T21 chain: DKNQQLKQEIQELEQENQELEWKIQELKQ

For the next experiment, the target named is T22, 4H687-bN.
T22 chain: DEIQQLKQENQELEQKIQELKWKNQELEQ

The next experiment has as its target T23, 4H331-bN.
T23 chain: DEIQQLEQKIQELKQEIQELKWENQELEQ

Another experiment addresses T24, 4H967-bN.
T24 chain: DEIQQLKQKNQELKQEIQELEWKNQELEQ

Another experiment addresses T25, 4H953-bN.
T25 chain: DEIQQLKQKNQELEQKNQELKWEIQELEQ

In the next experiment the target is T26, 4H3782-bN.
T26 chain: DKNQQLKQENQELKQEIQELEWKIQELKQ

For another experiment, the target named is T27, 4H797-bN.
T27 chain: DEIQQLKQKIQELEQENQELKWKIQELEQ

The next experiment addresses T28, 4H607-bN.
T28 chain: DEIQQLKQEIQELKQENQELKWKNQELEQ

The target of a further experiment is T29, 4H370-bN.
T29 chain: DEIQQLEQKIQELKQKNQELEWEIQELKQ

Another experiment addresses T30, 4H568-bN.
T30 chain: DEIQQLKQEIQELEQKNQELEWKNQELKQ

The target of the next experiment is T31, P5bHq.
T31 chain: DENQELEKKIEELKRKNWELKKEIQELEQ

The next experiment addresses T32, 4H477-bA.
T32 chain: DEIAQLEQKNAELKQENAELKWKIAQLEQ

The target of a further experiment is T33, 4H40-bA.
T33 chain: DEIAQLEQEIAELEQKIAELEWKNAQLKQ

The target of another experiment is T34, 4H2839-bA.
T34 chain: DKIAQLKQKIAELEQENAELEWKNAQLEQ

The target in another experiment is T35, 4H3057-bA.
T35 chain: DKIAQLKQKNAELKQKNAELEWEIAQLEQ

The target of another experiment is T36, 4H492-bA.
T36 chain: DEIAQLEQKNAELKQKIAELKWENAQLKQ

The next experiment addresses T37, 4H2915-bA.
T37 chain: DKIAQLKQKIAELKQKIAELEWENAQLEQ

Another experiment concerns the target T38, 4H319-bA.
T38 chain: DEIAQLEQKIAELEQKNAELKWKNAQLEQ

A further experiment deals with T39, 4H2588-bA.
T39 chain: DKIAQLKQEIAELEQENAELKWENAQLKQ

For another experiment, the target named is T40, 4H741-bA.
T40 chain: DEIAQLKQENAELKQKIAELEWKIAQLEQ

A further experiment deals with T41, 4H2717-bA.
T41 chain: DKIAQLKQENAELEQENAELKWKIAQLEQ

A further experiment addresses T42, 4H348-bA.
T42 chain: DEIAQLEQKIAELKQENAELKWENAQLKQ

A further experiment deals with T43, 4H2692-bA.
T43 chain: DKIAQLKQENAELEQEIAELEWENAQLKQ

The target of another experiment is T44, 4H3112-bH.
T44 chain: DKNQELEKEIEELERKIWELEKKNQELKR

For another experiment, the target named is T45, 4H575-bH.
T45 chain: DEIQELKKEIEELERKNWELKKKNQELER

The target of another experiment is T46, 4H457-bH.
T46 chain: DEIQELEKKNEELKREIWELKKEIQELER

The target in the next experiment is T47, 4H4073-bH.
T47 chain: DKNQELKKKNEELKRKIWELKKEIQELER

A further experiment has as its target T48, 4H3427-bH.
T48 chain: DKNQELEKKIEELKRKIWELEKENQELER

The next experiment concerns the target T49, 4H3926-bH.
T49 chain: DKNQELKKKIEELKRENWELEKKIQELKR

Another experiment has as its target T50, 4H2673-bH.
T50 chain: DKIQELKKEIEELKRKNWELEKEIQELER

Another experiment addresses T51, 4H855-bH.
T51 chain: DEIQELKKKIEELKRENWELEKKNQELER

The target of a further experiment is T52, 4H2702-bH.
T52 chain: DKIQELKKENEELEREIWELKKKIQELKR

A further experiment has as its target T53, 4H780-bH.
T53 chain: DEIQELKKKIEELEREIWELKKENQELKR

In the next experiment the target is T54, 4H56-bA.
T54 chain: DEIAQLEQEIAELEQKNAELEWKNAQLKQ

The target in the next experiment is T55, 4H797-bH.
T55 chain: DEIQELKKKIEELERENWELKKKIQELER

A further experiment concerns the target T56, 4H346-bH.
T56 chain: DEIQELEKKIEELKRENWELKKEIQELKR

For the next experiment, the target named is T57, 4H953-bH.
T57 chain: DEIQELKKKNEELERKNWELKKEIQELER

Another experiment deals with T58, 4H968-bH.
T58 chain: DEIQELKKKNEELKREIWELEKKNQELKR

In the next experiment the target is T59, 4H3010-bH.
T59 chain: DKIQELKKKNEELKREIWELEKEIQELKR

In the next experiment the target is T60, 4H754-bH.
T60 chain: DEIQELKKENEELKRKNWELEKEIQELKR

For a further experiment, the target named is T61, 4H683-bH.
T61 chain: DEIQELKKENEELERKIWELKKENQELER

For another experiment, the target named is T62, 4H918-bH.
T62 chain: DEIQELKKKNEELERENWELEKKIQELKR

A further experiment deals with T63, P8A.
T63 chain: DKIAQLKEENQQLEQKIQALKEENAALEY

For another experiment, the target named is T64, P7A.
T64 chain: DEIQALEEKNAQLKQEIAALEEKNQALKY

Another experiment deals with T65, P6A.
T65 chain: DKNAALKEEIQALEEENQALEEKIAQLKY

The next experiment has as its target T66, P9A.
T66 chain: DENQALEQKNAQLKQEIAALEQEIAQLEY

Interaction score data for six molecules are collected here from PMC10397247.

B1: 4H3961-bN (peptide)
chain: DKNQQLKQKIQELKQKNQELKWEIQELEQ
For the molecule B1, the values for the interaction score in the experiment with 4H4001-bN, with 4H470-bN and with 4H3961-bN were -0.763, -1.5 and -1.14, respectively.

B2: 4H3175-bA (peptide)
chain: DKNAQLEQEIAELKQKIAELEWKNAQLEQ
For the molecule B2, the interaction score in the experiment with 4H3628-bA is -0.531; with 4H3175-bA it was 0.672; with 4H591-bA, -1.55; with 4H3462-bA, -0.259; in the experiment with 4H3497-bA, 0; with 4H3926-bA it was -0.662. The interaction score with 4H4001-bN was -0.893; with 4H626-bA it was -2; with 4H3613-bA, -0.277; with 4H906-bA, -1.09; with 4H3298-bA, -0.491; in the experiment with 4H3277-bA it was -0.717.

B3: 4H3189-bN (peptide)
chain: DKNQQLEQEIQELKQKNQELEWKIQELEQ
Take B3: the interaction score with 4H918-bN was -0.805; in the experiment with 4H462-bN, -0.731; with 4H72-bN, -0.483; with 4H3189-bN, -1.1; with 4H883-bN it was -1.35; with 4H3843-bN, -1.81. The interaction score with 4H3606-bN was -0.893; with 4H4001-bN, -1.58; in the experiment with 4H687-bN it was -0.938; in the experiment with 4H331-bN, -1.93; with 4H967-bN, -1.41; with 4H953-bN it was -1.88. Moreover, the interaction score in the experiment with 4H3782-bN is -1.38; with 4H797-bN it was -0.933; with 4H607-bN, -2.38; with 4H370-bN it was -1.02; in the experiment with 4H568-bN, -0.877; in the experiment with P5bHq it was -2.13.

B4: 4H2588-bA (peptide)
chain: DKIAQLKQEIAELEQENAELKWENAQLKQ
In the case of B4, the interaction score with 4H477-bA is -1.19; in the experiment with 4H40-bA it was -1.21; in the experiment with 4H2839-bA, 0.846; with 4H3057-bA, -0.114; in the experiment with 4H492-bA, 0.34; in the experiment with 4H2915-bA it was 0.571. For the same molecule, the interaction score with 4H319-bA is 0.789; with 4H2588-bA, 1.71; in the experiment with 4H741-bA, -0.854; with 4H2717-bA, 0.0896; with 4H348-bA, 1.27; with 4H2692-bA, -0.738. In the experiment with 4H3277-bA, this molecule returned an interaction score of -0.938.

B5: 4H2673-bH (peptide)
chain: DKIQELKKEIEELKRKNWELEKEIQELER
In the case of B5, the interaction score with 4H3112-bH was -0.64; with 4H575-bH, -0.762; with 4H457-bH it was -0.154; with 4H4073-bH, 0.575; with 4H3427-bH it was -0.449; with 4H3926-bH, 0.192. Moreover, the interaction score with 4H2673-bH was -0.111; with 4H855-bH, -0.854; with 4H2702-bH, -0.671; with 4H780-bH it was -0.56; in the experiment with 4H56-bA it was 0.863; in the experiment with 4H797-bH it was -0.55. Also, the interaction score was -0.803 in the experiment with 4H346-bH; -1.62 in the experiment with 4H953-bH; -0.933 with 4H968-bH; 2.11 in the experiment with 4H3010-bH; -1.99 in the experiment with 4H754-bH; 0.639 with 4H683-bH. The interaction score with 4H918-bH was -0.87.

B6: P6A (peptide)
chain: DKNAALKEEIQALEEENQALEEKIAQLKY
As to B6, the interaction score is -0.152 with P8A, -0.197 in the experiment with P7A, -0.792 in the experiment with P6A and -0.171 with P9A.
